Measurements: the nanobody polyreactivity screen of Harvey et al. (2022)

Assay: yeast display, Sf9 membrane polyspecificity reagent, FACS + sequencing; frameworks hold sequencing errors
Procedure, shortened: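 Synthetic nanobody libraries on Saccharomyces cerevisiae BJ5465 were galactose-induced for 36–48 hours, stained 1 hour at 4 °C with 10% biotinylated, detergent-solubilized Sf9 membrane reagent and enriched on streptavidin microbeads. FACS then separated cells into low and high (top ~1%) gates by anti-HA (expression) and streptavidin (reagent binding) fluorescence. Genes were colony-PCR amplified, MiSeq 2 × 250 sequenced and CDR-length filtered. A clone's polyreactivity label is that of its gate of origin.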

Sequence	polyreactivity (PSR sort gate)
QVQLVESGGGLVQAGGSLRLSCAASGFIFQDNAMGWYRQAPGKERELVAAIRSTGSTNYADSVKGRFTISRDNAKNTVYLQMNSLKPEDTAVYYCNAGKYQSDTPSLVPTEYPAFYYWGQGTQVTVSS	low polyreactivity
QVQLVESGGGLVQAGGSLRLSCAASGSTFKKYAMGWYRQAPGKERELVATISKNGGSTYYADSVNGRFTISRDNAKNTVYLQMNSLKPEDTAVYYCATRWWYYRTWYDYWGQGTQVTVSS	high polyreactivity
QVQLVESGGGLVQAGGSLRLSCAASGSIFSRYAMGWYRQAPGKESELVAASRWTDSSTYYADSVKGRFTISRDNAKNTVYLQMNSLKPEDTAVYYCAKVYERGSNKVDYWGQGTQVTVSS	low polyreactivity
QVQLVESAGGLVQEGGSLRLSCAASGSISAPYAMGWYRQAPGKERELVAAISWRGGRTYYADSVKGRFTISRDNAKNTVYLQMNSLKTEDTAVDYCAAKFRLGQFDYDYWGQGTQVTVSS	high polyreactivity
QVQLVESGGGLVQARRRLRLSCAASGRTFRENFMGWYRQEPGKEREFVAISSSGASTYYADSVKGRFTISRDNAKNTVYLQMNSLKPEDTAVYYCAAKLYGAPYSKYYYWGHGTQVTVSS	high polyreactivity
QVQLVESGGGLVQAGGSLRLSCAASGSIFLYNAMGWYRQAPGKERELVATITSSTGSTYYADSVKGRFTISRDNAKNTVYLQMNSLKPEDTAVYYCATRESRRQRRYYYWGQGTQVTLSS	high polyreactivity
QVQLVESRGGLVQAGGSLRLSCAASGIIFFKYAMGWYRQAPGKERELVAAISIDGSTNYADSVKGRFTISRDNAKNTVYLQMNSLKPEDTAVYYCNAKRYGFFYWQGDYWGQGTQVTVSS	low polyreactivity
QVQLVESGGGLVQAGGSLRLSCAASGLIFPRYAMGWYRQAPGKERELVAAITSRAGSTYYADSVKGRFTISRDNAKNTVYLQMNSLKPEDTAVYYCAAVSDGWDGDMYYWGQVTQVTVSS	low polyreactivity
QVQLVESGGGLVQAGGSLRLSCAASGNIFRVYDMGWYRQAPGKERELVAVIRWSSGRTYYADSVKGRFTISRDNAKNTVYLQMNSLKPEDTAVYYCATKLWRVPRNSHYDSYEYWGQGTQVTVSS	high polyreactivity
QFQLVESGGGLVQAGGSLSLSCAASGSTLQSYAMGWYRQAPGKERELVAGIRISGGNTRYADSVKGRFTISRDNAKNTVYLQMNSLIPEDTAVYYCAALTGFYNLRPYGYWGQGTQVTVSS	high polyreactivity
QVQLVESGGGLVQAGGSLRLSCAASGRIFGIYAMGWYRQAPGKERELVATITDSDDSTYYADSVKGRFTISRDNAKNTVNLQMNSLKPEDTAVYYCATAFSYGGGAYDYWGQGTKVTVSS	low polyreactivity
QVQLVESGGGLVQAGGSHRLSCAASGRTFSYNAMGWYRQAPGKERELVASITSSGGGTSYADSVKGRFTISRDNAKNTVYLQMNSLKPEDTAVYYCNRVLPHPDGYGVGARGYWGQGTQVTVSS	high polyreactivity
QLQLVESGGGLVQAGGSLRLSCAASGSIFRGYAMGWYRQAPGKERELVAAISWSGGRTYYADSVKGRFTISRDYAKNTVYLQMNSLKPEDTSVFYCNAASLRYSYTLFDCWGQGTQVTVSS	high polyreactivity
QVQLVESGGGLVQAGGSLRLSCAASGYIFFRNAMGWSRQAPGKEREFVADIRFSGGNTYYADSVKGRFTISRDNAKNTVYFQKISLKPEDTAVYYCSADLVYTYAYDYWGQGTQVTVSS	low polyreactivity
QVQLVESGGGLVQAGCSLRLSCAASGSIFSQSAMGWYRQAPGKERELVAAISARGTSTYYADSVKGRFTISRDNAKNTVYLQMNSLKPEDTAVYYCNTVRPYSSSSSRYYYWGQGTQVTVSS	high polyreactivity
QVHLVESGGGLVQAGGSLRLSCAASGSIFAVYAMGWYRQEPGKERELVAVITRSGGSTYYADSVKGRFTISRDNAKKTVYLQLYSLKPEDTAVYYCAARSSYLLRYDYWGQGTQVTVSS	high polyreactivity
QDQLVESGGGLVQAGGSLRLSCAASGSIFKINAMGWYRQAPGKERELVATITWSTGTTYYADSVKGRFTISRDNAKNTVYLQMYSLKPEDTAVYYCATDGDSTKLDYWGQGTQVTVSS	low polyreactivity
QVQLVESGGGLVQAGGSLRLSCAASGVTFHGYTMGWYRQAPGKERELVAAITSGGGTNYADSVKGRFTISRDNAKNTVYLQMNSLKPEDTAVYYCAAGFHKRVTPEILYDYWGQGTQVTVSS	low polyreactivity
QVQLEESGGGLVQAGGSLRLSCAASGRTFSRNAMGWYRQAPGKERELVAAITKGGGSTYYADSVKGRFTISRDNAKNTVYLQMNSLKPEDTAVYYCAARKRPPYGYGYWGQGTQVTVSS	high polyreactivity
QVQLVESGGGLVQARGSLRLSCAASGYIFFGNAMGWYRQAPGKERELVAAIRWRGTSTYYADSVKGRFTISRDNAKNTVYLQMKSLKPEDTAVYYCAADVVSSNFYGTFLYDYDYWGQGTQVTVSS	low polyreactivity
QVHLVESGGGLVQAGGSLRLSCAASGSIFKPYAMGWYRKAPGKERELVAAISGIGGSTYYADSVKGRFTISRDNAKNTVYLQMNSLKPEDTAVYYCAADTFFKIFSEYNYCGQGTQVTVSS	high polyreactivity
QVQLVESGGGLVQAGGSLRLSCAASGFNVRYYAMGWYRQAPGKERELVAAISSGGNTRYADSVKGRFTISRDNAKNTVYLQMNSLKPEDTAVYYCARRPGAWKYVYTGDYWGQGTQVTVSS	high polyreactivity

Sequence	polyreactivity (PSR sort gate)
QVQLVESGGGLVQAGGSLRLSCAASGRTFYTNVMGWYRQAPGKERELVAAITTSSSRTYYADSVKGRFTISRDNAKNTVYLQMNSLKPEDTAVYYCAARIHGSWSFDYWGQGTQVTVSS	low polyreactivity
QVQLVESGGGLVQAGGSLRLTCAASGFTFDRYAMGWYRQAPGKEREVVAAISRSGTSTYYADSVKGRFTISRDNAKNTVYLQMNSLKPEDTAVYYCATRYNVYFPSRRYQYDYWGQGSQVTVSS	high polyreactivity
QVQHVESGGGLVQAGGSLRLSCSASGRTFNFYTMGWYRQAPGKEREFVAGITSTGGSTDYADSVKGRFTISRDNAKNTVYLQMNSLKPEDTAVYYCNALRRWWEPYWTYNYWGQGTQVTVSS	high polyreactivity
QVQLVESGGGLVQAGGSLRLSCAASGYTFKRYAMGWYRQAPGKESDLVASITRRGGSTYYADSVKGRFTISRDNAKNTVNLQMNSLKPEDTAVYDCAKSIPLGYTIYDYWGQGTQVTVSS	high polyreactivity
QVQLVESGGGLVQAGGSLRLSCAASGSTFWTNAMGWYRQAPGKERELVAVISRGGSTNYADSVKGRFTISRDNAKNTVYLQMNSLKPEDTAVYYCAAASYLYGRYYYWGQGTQVTVSS	high polyreactivity
QVQLVESGGGLVQAGGTLRLSCAASGLTFRYYAMGWYRQAPGKERELVAAITRRGSTYYADSVKGRFTISRDNAKNTVYFQMNSLKPEDTAVYYCATVTGFHSSPLRDLDYWGQGTQVTVSS	high polyreactivity
QVQLVESGGGLVQAGGSLRLSCAASGRIFSPYAMGWYRQAPGKERELVATITSGGSTNYADSVKGRFTISRDNAKNTVYLQKNSLKPEDTAVYYCNAVYYSNPYYYSRVWQYYYWGQGTQVTVSS	low polyreactivity
QVQLVESGGGLVQAGGSLRISCAASGSTFDYNAMGWDRQAPGKERELVAVISQSGTRTYYADSVKGRFTISRDNAKNTVYLQMNSLKPEDTAVYYCAARSPYSYRYDYWGQGTQVTVSS	high polyreactivity
QVQLVESGGGLVQAAGILRLSCAASGSIFVTNAKGWYRQAPGKERELVAAISSGGNTNYADSVKGRFTISRDNAKNTVYLQINSLKPVDTAVYYCAKDPDKVDSVDMDYWGHGTQVTVSS	low polyreactivity
QVQLVESGGGLVQAGGSLRLSCAASGFTFPTYAMVWYRQAPGKERELVAAITRGGSTYYADSVKGRFTISRDNAKYTVYLQMNSLKPEDTAVYYCAADDPWYEEDYWGQGTQVTVSS	low polyreactivity
QVQLVESGGGLVQAGGSLRLSCAASGFTFDRNAMGWYRQAPGKERGLVAAISSSGGRTYYADSVKGRFTISRDNAKNTVYLQMNSLKPEDTAVYYCAAVFFSRPSAYGSRYYWGQGTQVTVSS	high polyreactivity
QVQLVESGGGLVQAGGSLRLSCAASGRILEGYAMGWYRQAPGKERELVAAISFSTTTTYYADSVKGRFTISRDNAKNTVYLQMNSLKPEDTAVYYCAADSQQSDYDYWGQGTQVTVSS	high polyreactivity
QVQLVESGGGLVQAGGSLRLSCAASGLIFQVYDMGWYRQAPGKERELVAAISSGSNTNYADSVKGRFTISRDNAKNTVYLQMNSLKPEDTAVYYCAAGLYLQGPFDYWGQGTQVTVSS	low polyreactivity
QVQLVESGGGLVQAGGSLRLSCAASASTLYSYAMGWYRQAPGKEREFVAAITSDDGSKYYADSVKGRFTISRDNAKNTVYLQMNSLKQEDTAVYYCATAASVEYNYWGEGTQVTVSS	low polyreactivity
QVQLVESGGGLVQAGGSLRLSCDASGRTFYRNDMGWYRQAPGKERELVAAISSGGSTTYADSVKGRFTISRDNAKNTVYLQMNSLKPEDTAVYYCAADFLDYWGVYGWAEYEYWGQGTQVTVSS	low polyreactivity
QVQLVESGGGLVQAGGSLRLSCAASGRIFVQYDMGWYRQAHGKERELVAAITGGGGSTYYADSVKGRFTISRDNAKNTVYLQMNSLKPEDTAVYYCAADQDVYDFTGYDYWGQGTQVTVSS	low polyreactivity
QVQLVESGVGLVQAGGSRRLSCAASGRTFFDNVMGWYRQAPGKERELVAAIRSAGTTYYADSVKGRFTISRDNAKNTVYLQMNRLKPEDTAVYYCAATNRYYWSYFYQAKYGYWGQGTQVTVSS	low polyreactivity
QVQLVESGGGLVQAGGSLRLSCAASGRTLGKNAMGWYRQAPGKEREFVAAISRSGSRTYYADSVKGRFTISRDNEKYTVYLQMNSLKPEDTAVYYCAADGSGHSQRYDYWGQGTQVTVSS	high polyreactivity
QVQLVDSGGGFFQAGGSLRLSCAPSGITFVVYAMGWYRQAPGKERDLVAAITAGGSTYADSVKGRFTISRDNAKTTVYLQMNSLKPEDTAVYDCNTGLYLYVGLGDHDYWGQGTQVTVSS	low polyreactivity
QVQLVESGGGLVQAGGSLRLSCAASGSTFDYYDRGWFRQAPGKERELVAAISSGGDSTYYADSVKGRFTISRDNEKNTVYLQMNSLKPEDTAVYYCAAAVYYGQSVWYYYWGQGTQVTVSS	high polyreactivity
QVQLVESGGGLVQAGGSLRLSCAASGSIFVRNAMGWYRQAPGKERELVASISYSGGTTYADSVKGRFTISRDNAKNTVYLQMNSLKPEDTAVYYCNAGGVYPRFTFLEQGYEMDYWGQGTQVTVSS	low polyreactivity
